Measurements: the DeepSol protein solubility set

experiment: soluble on expression in E. coli; label from the status in PepcDB or PDB records

Row | Sequence | soluble on expression in E. coli
1 | MKKAIQFGAGNIGRGFIGGLLVKSGYHVVFADVNEYILNSINKDKKYTIHIRDVECIDEVIDNISAVSSIKEEIIDEIVQAEIITTAVGPLVLTKIASTIAKGIKARKEKGLTSNLNIIACENAIYASSSLKEEVLKYLNKEEVEYLEMYVGFPNCSVDRIVPPGKNENPLDVTVENFYEWNVEKQGFKGEIPTIVGMNLADNLMAYIERKLFTLNTGHAITAYIGYLKGYKTIEESIKDKFICDIVKSAMVESGEGLIKKYNFDSEVHYKYIDKILNRFKNPYLNDDVLRVGREPLRKLSDKDRLIKPLMTAKSYGLSVDNLILGIGAALHYNNSEDTQSVELQELIKSIGVKKAVAKIANISNDEELLNNIEKSYIFMKNL | not soluble
2 | MKRQLFTVLVCMTMFAVASCGEKKGKDKFEERIEKAKESVEDVVDDAKDQIEDKADEVGETLDKAKSKIEKAKKKLDEANRD | not soluble
3 | MGSDKIHHHHHHMKSVQDRLSQTTNPSPKSYQQLYQEIVSDPEVAAFIKKEGLTQQEITLSISKFLEYISQRDLFVKQDEAYIAKGYQPVLVMNEGYADVSYLETEELVEYRRLEAIKNRIQLINMPASLKNVTVADIDKSDENRVEVMLAIADFVKRFEEKPKGLYIYGNFGIGKSYLMAYLANLLSKTHLQSTTMLHYPTFVVDIKNAIKDGSVKERIDEIKMAQVLVLDDIGAEQHSPWVRDDVLQVILQYRMQENLPTFFTSNFSFDDLERHFASGKSGDETWQAKRVMERIRYLARDLHLKGNNRR | not soluble
4 | MKELMRNVYLLDDTLVTKSKYGSHYGEKVFDGYREWVPWRSKLAAMILKGHRLKLRGDERVLYLGAASGTTVSHLADIVDEGIIYAVEYSAKPFEKLLELVRERNNIIPLLFDASKPWKYSGIVEKVDLIYQDIAQKNQIEILKANAEFFLKEKGEVVIMVKARSIDSTAEPEEVFKSVLKEMEGDFKIVKHGSLMPYHRDHIFIHAYRF | soluble
5 | MGSDKIHHHHHHMNLKKVVNEIRNFEGILRKIAIKDVVETFDFNDEDYEFDIIVDFGDDAAVIGIDGDNAILLAADGIWGKLLEADPWWAGYCSVLVNCKDIAAMGGKCVGMTNIISIKDKDICREVLKGVKDGVKKFGVPMVGGHTHPDAMCNVLDVSITGIAKKDCILRSDNAKIGDKIIFAYDLVGQIYKSFPLNWDTTTMKSKKLVRAQMDALVQIAENKLANSCKDISNPGAIGTLGMLLEVSRKGGVVDITKIPKPEEIDLIHWLKVYPGSGYVLTAKEENFKEIKDIFEDVEMTAEICGEVIAEKKLYITDGENKEVVFDFEKEFICGC | not soluble
6 | MSDPLHVTFVCTGNICRSPMAEKMFAQQLRHRGLGDAVRVTSAGTGNWHVGSCADERAAGVLRAHGYPTDHRAAQVGTEHLAADLLVALDRNHARLLRQLGVEAARVRMLRSFDPRSGTHALDVEDPYYGDHSDFEEVFAVIESALPGLHDWVDERLARNGPS | soluble
7 | GPGSMLRNTDVRLFSTFALNPETSVAPHGPPRGLVNRYVSMGLPPWAAWCNKVNRYSLYRMSGVTQRSFLPKPPQEMDVIWLNERVRERVRTSRQVQNVYRQLKYPYVKTGIHYSDVLDHWVQVPMVEAAMFEVEKDGGFDNFILKRSGPELRSTYGERIRRHILVRQKEIQKNFVLQKQAQMLVESMEKEILPMEDGKKVEEVLEKYGIDKEQLLRDIARAAVAKKQQLASAVPQPSHVEVSTN | not soluble
8 | MDPDLWEETGHNSELLLRLLPAARLTAVARDPQYTGRLEQVWQQYRTYLGAPVNRGNLPGLESNQVIAYFSAEFGLSEALPIYAGGLGFLAGDHLKSASDLGLPLVGVGLLYREGYFRQRLDRRGQQREVYSRYDFYQLPLELERRADGSPLEVQVNFPDPDRQVRARVWRARVGRLNLYLLDSDCPGNLEADRLITDRLYGGDLEKRIQQEILLGIGGVRALAALGINATIFHLNEGHSAFLGLERIRQLQARYGLDLASARELATCSNIFTTHTPVPAGIDVFPPYLMDKYFTEYYQSLGLSRHEFLALGRQDPNNQQEPFNMAVLALRLSAWANGVSQLHGQTARRMWQVIWPGVPVAEIPIGAITNGVHTTSWVGEKMAALYDRYLGTAWRELEHHHHHH | not soluble
9 | MGHHHHHHSHMKALLSIEMDMQVPFHDVDSMGITWHGNYLRYFEVARCKLLDELGYNYRQMRASNYAWPIIDVQIKYVKPSTFEQHITVRAELVEWENRLKINYQIRDTATGERITKGYTIQAAVDMTSQEMCFVTPEVFRSKIAPLLAKVDNE | soluble
10 | MTFRPFWLDQALRSEHAAPCPPLAGDTRADVCIVGGGYTGLWTAIMLKEHDPGLDVVLVEADLCGAGASGRNGGCALSWSAKFFTLERLFGLTEAIRLVKASEDSIRAIGAFCQRYDVEADYRLDGTLYTATNPAQVGSTDSVIAALERHGINSFAKRPLADVQRLAGSRRHLEGWFSPAAATVQPGKLVRGLRRVALQLGVRLYEGTPMRGLEHGRPAEVVTPHGRVVAGRVVLALNAWMARAFPQFERSVAIVSSDMLITEPRPDLLQEIGLTSGVSVLDSRIFVHYYHNTPDGRLMLGKGGNTFAYGGRMLPVFDRPSPYLGQLRGSLREFFPEFAEVAIEASWNGPSDRSVTGLPFFGRLDGRDNVFYGFGYSGSGVGPCHMGGQILSSLALGLDNPWTRSPLTQGPLGRFPPEPIRYVGSLMVRNAIRRKEHAEDAGRRPRHLDVRLARFAAAAGKADKGLEHHHHHH | not soluble
11 | MSLKHLIKNYVQKLIKTELDAIQSKSVHDNRNFIYNGEFLILESEFGLHCFPRVQLNHALSYKNPNFDLGMRHWIVNHCKHDTTYIDIGANVGTFCGIAARHITQGKIIAIEPLTEMENSIRMNVQLNNPLVEFHHFGCAIGENEGENIFEVYEFDNRVSSLYFQKNTDIADKVKNSQVLVRKLSSLDISPTNSVVIKIDAEGAEIEILNQIYEFTEKHNGIEYYICFEFAMGHIQRSNRTFDEIFNIINSKFGSKAYFIHPLSSAEHPEFNKATQDINGNICFKYVSEGHHHHHH | soluble
12 | MGSDKIHHHHHHMESITLTADLDALAKTSAFITAAAERCGLDERATWQVQLAVDEAVTNVIQHAYDPDQPGDFTLSWQCHDQRFIVTVRDHGRQFDPSTVPVPDITSPLEERQVGGLGIYLITRLMDEVHFEFSPQGGNLLTMVKYLPSDQAEEANEVVVIPINDRIDALTAPRLSKTVNEQISQGARQIVLDFSNVPFLSSSGLRALLLIRKELMTLGGELRLAALQPQVHEVFTITGFTQVFNIHPSVTEARAAFSQRR | not soluble
13 | VSSQKTSSLPKYTPKVNSSINNYIRKKNMKAPRIEEDYTSYFPKYGYRNGVGRPEGIVVHDTANDNSTIDGEIAFMKRNYTNAFVHAFVDGNRIIETAPTDYLSWGAGPYGNQRFINVEIVHTHDYDSFARSMNNYADYAATQLQYYNLKPDSAENDGRGTVWTHAAISNFLGGTDHADPHQYLRSHNYSYAELYDLIYEKYLIKTKQVAPWG | soluble
14 | MGSDKIHHHHHHMKQSKKIIITCAVTGSIHTPTMSPYLPITPEEIVKEGVAAAEAGAAMLHLHARDPLNGRPSQDPDLFMRFLPQLKERTDAILNITTGGGLGMSLDERLAPARAARPEVASMNMGSLNFNISQAAAKFDTFKFDWERPYLAGTRDFILSNTFSQIERGMTELGASGTRFEFECYDVGHLYNLAHFVDRKLVEPPFFLQCVFGILGGIGADPENLLHMRTIADRLFGQDYYLSVLAAGRHQMPFVTMSAILGGNVRVGLEDSLYSGKGQLATSNAEQVRKIRRIIEELSLDIATPDEARAMLKTKGANETSF | not soluble
15 | MSFFTKEQQPKENCPPITVEKARQLFEFNTNHLSLSDYHHQTVLKTSKQLVAQHLMPNATDNLSQHFLMNYKANNNYLGFQASIVDFFTDSAVANFSSSYVYESQEKIIRLPKPTKISTALSTCIIKRRSHRQFSDRQMPLQDLSNILYYACGVSSQASIRDGASDKITLRNCASGGGLYPIHLVFYARNISKLIDGFYEYLPYQHALRCYRHSSEENVRDFAEYGAINAENCNIIIIYVYHYMKNTRKYGNQATAYAFIESGEIAQNIQLTATALTYGSIDIGGYNKEYLQELLDLDGLGEHVIHMTLVGTKESQ | not soluble
16 | MGSDKIHHHHHHMSPNNFDTDVCIVGGGPTGTLLAVLLGQKGHRVTILEKWPTFYERPRAVTFDHEIARILGYIGIDSENDEAIDYHSDSYDWKNAAGETLLEVDWTSMTDSGWRTRYWFYQPELEKRLRDLALTMDFVDIRCGFTAVGLSQDENSAIIHGIVTDTPENIPADAQREDIRAKYVIGADGANSFVRNSLGLEMNDLGYFFDWLILDLKPTQDIDYGTDHWQLCDPKRPTTIVPGGPGRRRWEFMALPGEDLKELASEESAWNLLEPWDVTPGKAILERSAVYRFQARWAQEWRSGRALIAGDAAHLMPPFAGEGMCAGLRDSLALAWRLDLVLSGKSDDALLDTYGEERREHVHYYIDFSMDLGNVICITDEDEARLRDERMIKELEAQDGVPVNTDVAHLGPGIWDKDSSHGGELAKQGIVEYQGRKARFDDAVGRGWAVLGLNTDPREVLDEDSLVALDAIGAIVESVGDATSAVLDVEGLYTRWLKEAGATFIITRPDFYVYSTAVDAEQLQTQIKQLSDLLHLNSVVGA | not soluble
17 | MTTHHIKKSYSPNTKLSDLICENYDLLLVITRFGISLGFGEKSIREVCEDNKVNTNTLMAVINALINRPEHPSETVLSDLSAPSLINYLRKSHNYFLEFRLPLLRQDLLAALSNCPSEVVFVIRQFYDEYVEEVRKHMSYEEKTVFPYVEKLLGGKLDKRSHYRIDIFSKRHDQIELKISELKNLLIKYYPTSSGYELNSVLHDIFSSEDDLSAHNFVEDHLFVPLIRKIEKENGL | not soluble
18 | CDKSANPKQPTQGMSVVTSFYPMYAMTKEVSGDLNDVRMIQSGAGIHSFEPSVNDVAAIYDADLFVYHSHTLEAWARDLDPNLKKSKVNVFEASKPLTLDRVKGLEDMEVTQGIDPATLYDPHTWTDPVLAGEEAVNIAKELGHLDPKHKDSYTKKAKAFKKEAEQLTEEYTQKFKKVRSKTFVTQHTAFSYLAKRFGLKQLGISGISPEQEPSPRQLKEIQDFVKEYNVKTIFAEDNVNPKIAHAIAKSTGAKVKTLSPLEAAPSGNKTYLENLRANLEVLYQQLK | soluble
19 | SADIYIMGHRYPDMDALGSAFGVARLASFNNRKAWIVLDENEIIPDVKRVLEAIKEYPELEERIISPKEAMKRKKESSLLVMVDYHKPSLSISQELYERFDKVVIIDHHRRGDEFPAKPLLSYIESSASSASELVTELIEYQSNSANKLQAFEATMMLAGIVVDTKSFNTRTTARTFDVASYLRTCGADSSLVQYLLSSDL | not soluble
20 | MNSLRPELLELTPQALTALSNAGFVKRSLKELENGNVPEISHENSALIATFSDGVRTQLANGQALKEAQCTYGASGMCRHRVMLVLSYQRLCATAQPTGKEEEWDPAIWLEELATLPDATRKRAQALVAKSITIELFCAPGEIPSARLPMSDVRFYSRSSIRFARCDCIEGTLCEHVVLAVQAFVQAKAQQAELTHLIWQMRSEHVTSSDDPFASEEGKTCRQYVQQLSQALWLSGISQPLIHYEAAFSRAQQAAERCSWRWVSESLRQLRASVDAFHARASHYHAGECLRQLAALNSRLNCAQEMARSDSVGEVPPVPWRTVVGSGIAGEAKLDHLRLVSLGMRCWQDIEHYGLRIWFTDPDTGSILHLSRSWPRSEQEDSPAATRRLFSFQAGALAGGQIVSQAAKRSADGELLLATRNRLSSVVPLSPDAWQMLSAPLRQPGIVALREYLRQRPPACIRPLNQVDNLFILPVAECISLGWDSSRQTLDAQVISGEGEDNLLTLSLPASASAPYAIERMAALLQQTDDPVCLVSGFVSFVDGQLTLEPQVMMTKTRAWALDAETAPVVVSLPSASVLPVPSTAHQLLMRCQALLIQLLHNGWRYQEQSAINQAELLANDLTAVGFYRLAHVLAQFRNTESEARVEAMNNGVLLCEQLFPMLQQQG | not soluble
21 | MYDKILKMLTDTIKQFSDAPIYLDNVMQSSEPFYFVLSVEESMTDNVGQNVQNKAYNVDIALVDSKKDKQLVKSLTESCGAFFNVLNLDGNELFPEDYQTFKTDGIQHINFNVAFPQLIEWSEK | not soluble
